Sequences and labels used below:
T1: C-10 peptide
T1 construct: also called PSMGFR C-10; PSMGFR minus 10 amino acids from the C-terminus
T1 peptide: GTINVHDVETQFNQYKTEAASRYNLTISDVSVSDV

T2: N-10 peptide
T2 construct: also called PSMGFR N-10; PSMGFR minus 10 amino acids from the N-terminus
T2 peptide: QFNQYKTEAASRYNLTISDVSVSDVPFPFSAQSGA

T3: N+9/C-9 peptide
T3 peptide: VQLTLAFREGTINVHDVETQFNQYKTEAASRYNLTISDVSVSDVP

T4: NME7AB (Homo sapiens (Human), UniProt Q9Y5B8 92-376)
T4 construct: NME7A in the text appears to be NME7AB; also called NM23-H7; NME7A
T4 sequence: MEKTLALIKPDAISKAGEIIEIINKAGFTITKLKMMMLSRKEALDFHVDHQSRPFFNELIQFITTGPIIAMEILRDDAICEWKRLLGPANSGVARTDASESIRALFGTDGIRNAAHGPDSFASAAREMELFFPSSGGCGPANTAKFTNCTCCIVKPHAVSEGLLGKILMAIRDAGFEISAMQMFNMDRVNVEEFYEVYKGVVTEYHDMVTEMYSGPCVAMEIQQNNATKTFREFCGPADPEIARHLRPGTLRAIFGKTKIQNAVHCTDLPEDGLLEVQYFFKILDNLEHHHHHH

T5: N-19 peptide
T5 peptide: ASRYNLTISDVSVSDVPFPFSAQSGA

T6: N-26 peptide
T6 peptide: ISDVSVSDVPFPFSAQSGA

T7: N-30 peptide
T7 peptide: SVSDVPFPFSAQSGA

T8: N-10/C-5 peptide
T8 peptide: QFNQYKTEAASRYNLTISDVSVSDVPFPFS

T9: N-19/C-5 peptide
T9 peptide: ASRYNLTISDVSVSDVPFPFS

B1: monoclonal antibody 28F9 (antibody, V domains shown)
VH: QVQLQQPGAELVQPGASVKLSCKASGYTFTGYFLYWVKQRPGHGLEWIGGIHPSNGDTDFNEKFKNKATLTVDISSSTAYMQLSSLTSEDSAVYYCTLLIGVYWGQGTTLTVSS
VL: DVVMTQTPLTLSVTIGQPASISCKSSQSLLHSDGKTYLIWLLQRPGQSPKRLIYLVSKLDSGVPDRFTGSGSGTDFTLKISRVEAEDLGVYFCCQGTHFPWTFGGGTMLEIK
notes: Raised against PSMGFR; also called MN28F9; anti-PSMGFR antibody 28F9
B2: monoclonal antibody 18G12 (antibody, V domains shown)
VH: B1 VH with P7S, Q13K, H43Q, H52N, S54D, D57G, T58I, K65R, I74K, V102N
VL: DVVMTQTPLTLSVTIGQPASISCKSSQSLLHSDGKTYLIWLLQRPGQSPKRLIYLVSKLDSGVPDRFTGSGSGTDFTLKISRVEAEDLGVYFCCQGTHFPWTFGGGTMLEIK
notes: Raised against PSMGFR; also called MN18G12; anti-PSMGFR antibody 18G12
B3: monoclonal antibody B12 (antibody, V domains shown)
VH: QAQLKESGPGLVAPSQSLSITCTVSGFSLTSYGVHWVRQPPGKGLEWLGVIWPGGSTNYNSTLMSRMRIIKDNSKSQVFLKMNSLQIDDTAMYYCARDRTPRVGAWFAYWGQGTLVTVSA
VL: IIVLTQSPASLAVSLGQRATISCRASESVATYGNNFMQWYQQKPGQPPKLLIYLASTLDSGVPARFSGSGSRTDFTLTIDPVEADDAATYYCQQNNEDPPTFGGGTKLEIK
notes: Raised against PSMGFR
B4: monoclonal antibody 8C7F3 (antibody, V domains shown)
VH: EVMLVESGGGLVKPGGSLKLSCAASGFTFSTYAMSWVRQTPEKRLEWVAAISNGGGYTYYPDSLKGRFTISRDNAKNTLYLQMSSLRSEDTATYYCARRYYDHYFDYWGQGTALTVSS
VL: B3 VL
notes: Raised against PSMGFR
B5: monoclonal antibody B9 (antibody, V domains shown)
VH: EVQVVESGGDLVKPGGSLKLSCAASGFTFSRYGMSWVRQTPDKRLEWVATISSGGTYIYYPDSVKGRFTISRDNAKNTLYLQMSSLKSEDTAMYYCARDNYGSSYDYAMDYWGQGTSVTVSS
VL: QIVLTQSPAIMSASPGEEVTLTCSASSSVSYMHWFQQRPGTSPKLWIYTTSNLASGVPARFSGSGSGTSYSLTISRMEAEDAATYYCQQRSSYPFTFGSGTKLEIK
notes: Raised against PSMGFR
B6: monoclonal antibody 3C2B1 (antibody, V domains shown)
VH: EVMLVESGGGLVKPGGSLKLSCAASGITFSTYTMSWVRQTPEKRLEWVATISTGGDKTYYSDSVKGRFTISRDNAKNNLYLQMSSLRSEDTALYYCARGTTAMYYYAMDYWGQGTSVTVSS
VL: DIVLTQSPASLAVSLGQRATISCRASKSISTSDYNYIHWYQQKPGQPPKLLIYLASNLESGVPARFSGSGSGTDFTLNIHPVEEEDAATYYCQHSRELPLTFGAGTKLELK
notes: Raised against PSMGFR; also called MN3C2B1; anti-PSMGFR antibody 3C2B1
B7: humanized MNC2 scFv (scFv, V domains shown)
VH: EVQLVESGGGLVKPGGSLRLSCAASGFTFSGYAMSWVRQAPGKGLEWVSTISSGGTYIYYPDSVKGRFTISRDNAKNSLYLQMNSLRAEDTAVYYCARLGGDNYYEYFDVWGKGTTVTVSS
VL: DIVLTQSPASLAVSPGQRATITCRASKSVSTSGYSYMHWYQQKPGQPPKLLIYLASNLESGVPARFSGSGSGTDFTLTINPVEANDTANYYCQHSRELPFTFGGGTKVEIKR
notes: also called huMNC2scFv; huMNC2 scFv
B8: monoclonal antibody 20A10 (antibody, V domains shown)
VH: EVMLVESGGGLVKPGGSLKLSCAASGFTFSTYAMSWIRQTPEKRLEWVASIGRAGSTYYSDSVKGRFTISRDNVRNILYLQMSSLRSEDTAMYYCARGPIYNDYDEFAYWGQGTLVTVSA
VL: NIMMTQSPSSLAVSAGEKVTMSCKSSQSVLYSSNQKNYLAWYQQKPGQSPKLLIYWASTRESGVPDRFTGSGSGTDFTLTISSVQAEDLAVYYCHQYLSSLTFGAGTKLELK
notes: Raised against PSMGFR; also called MN20A10; anti-PSMGFR antibody 20A10
B9: PSMGFR peptide (peptide)
peptide: GTINVHDVETQFNQYKTEAASRYNLTISDVSVSDVPFPFSAQSGA
notes: also called MUC1* peptide
B10: monoclonal antibody B2 (antibody, V domains shown)
VH: EVVLVESGGGLVEPGGSLKLSCVASGFAFSTFAMSWIRQTPEKRLEWVAAISNGGGYTYYPDTLKGRFSISRDNAKNTLYLQMSSLRSEDTAVYYCARRYYDLYFDLWGRGTSLIVSS
VL: DILMTQTPLSLPVSLGDQASISCRSSQNIVHSNGNTYLEWYLQKPGQSPKLLIYKVSNRFSGVPDRFSGSGSGTDFTLKISRVEAEDLGVYYCFQDSHVPLTFGAGTRLELK
notes: Raised against PSMGFR
B11: monoclonal antibody B7 (antibody, V domains shown)
VH: B5 VH
VL: B10 VL with I2V, N28T, R108K
notes: Raised against PSMGFR
B12: monoclonal antibody 17H6 (antibody, V domains shown)
VH: EVKLVESGGGLVQPGGSLRLSCATSGFTFTDYYMSWVRQPPRKALEWLGFIRNKANGYTAEYSASVKGRFTISRDVSQNLLYLQMNILRAEDSATYYCAKDYYGSNPAWFAYWGQGTLVTVSA
VL: B10 VL with N28S, N33S, Y37F, T74I, D96G, L101F, A105S, R108K, L111I
notes: Raised against the N+9/C-9 peptide; also called N+9/C-9 antibody 17H6

Positions count from the first letter of the chain named.

Experiment [1] addresses T1, C-10 peptide. The experiment in a line: peptide ELISA.
The target of experiment [2] is T2, N-10 peptide. The experiment can be described thus: ELISA, peptide on plate (FIG. 64). (In general: ELISA stands for enzyme-linked immunosorbent assay.)
For the next experiment, the target named is T3, N+9/C-9 peptide. The experiment can be described thus: ELISA, peptide on plate (FIG. 64).
Experiment [3] addresses B9. The experiment in a line: peptide binding, told in Western blot legend. In general terms: Immunoblotting shows a protein as a band on a membrane.
In experiment [4] the target is B9. The experiment in a line: ELISA, peptide on plate (FIG. 201A). The protocol:
(§1) FIG. 201A-201C show graphs of ELISA assays to determine the binding of another set of antibodies generated by immunizing animals with the PSMGFR peptide. […] F3, B12, B2, B7, B9, 8C7F3 and H11 all bound to the PSMGFR peptide and to the N-10 peptide.
(§2) This same ELISA assay was performed on the antibodies of the invention (FIGS. 64-66 and FIG. 201). Note that only 20A10 exactly matches the binding profile of MNC2 and MNE6. 25E6, 28F9 and 18G12 are all able to bind to the N-10 peptide. 18B4 is the only antibody raised against the PSMGFR peptide that requires the 10 most N-terminal amino acids of the peptide. The color of the bars for each antibody in the ELISA graph are color coded to match the deductive cognate sequence, or a portion thereof, of that antibody. In addition, another set of antibodies was assayed by ELISA (FIG. 201). Of this set, B12, B2, B7, B9, 8C7F3, and H11 bound to the PSMGFR peptide, bound to the N-10 peptide, but not to the C-10 peptide (FIG. 201). Although these antibodies were raised against the N+20/C-27 peptide, all but one, 45C11, still bind to the PSMGFR peptide, albeit at the N-terminal portion of PSMGFR.

Experiment [5] concerns the target T2, N-10 peptide. The experiment can be described thus: ELISA, peptide on plate (FIG. 201B). How it is done:
as §1, §2

For experiment [6], the target named is T1, C-10 peptide. The experiment can be described thus: ELISA, peptide on plate (FIG. 201C). The protocol: as §1, §2
Experiment [7] deals with B9. The experiment can be described thus: peptide ELISA, told in tissue legend.
The target in experiment [8] is T2, N-10 peptide. The experiment can be described thus: peptide ELISA, told in tissue legend.
The target in experiment [9] is B9. The experiment in a line: ELISA, PSMGFR peptide on plate (FIG. 5). The protocol: Humanized MNC2 scFv is then incubated with the surface, washed and detected according to standard methods.
Experiment [10] addresses T1, C-10 peptide. The experiment in a line: ELISA, peptide on plate (FIG. 64).
A further experiment deals with T4, NME7AB. The experiment can be described thus: ELISA, peptide on plate (FIG. 2A). The protocol:
FIGS. 2A-2I show results of ELISA assays. MUC1* peptides PSMGFR, PSMGFR minus 10 amino acids from the N-terminus aka N-10, or PSMGFR minus 10 amino acids from the C-terminus, aka C-10 are immobilized on the plate and the following are assayed for binding: NME7-AB (FIG. 2A), MNC2 monoclonal antibody (FIG. 2B), MNE6 monoclonal antibody (FIG. 2C), or dimeric NME1 (FIG. 2D). […] MUC1* peptides PSMGFR minus 10 amino acids from the N-terminus aka N-10, or PSMGFR minus 10 amino acids from the C-terminus, aka C-10, are immobilized on the plate and the following are assayed for binding: MNC3 (FIG. 2E) and MNC8 (FIG. 2F).

In experiment [11] the target is T2, N-10 peptide. The experiment can be described thus: ELISA, peptide on plate (FIG. 69).
The target of the next experiment is T5, N-19 peptide. The experiment in a line: ELISA, peptide on plate (FIG. 69).
The target in another experiment is T6, N-26 peptide. The experiment in a line: ELISA, peptide on plate (FIG. 69).
The target in the next experiment is T7, N-30 peptide. The experiment in a line: ELISA, peptide on plate (FIG. 69).
A further experiment concerns the target T8, N-10/C-5 peptide. The experiment can be described thus: ELISA, peptide on plate (FIG. 69).
A further experiment addresses T9, N-19/C-5 peptide. The experiment in a line: ELISA, peptide on plate (FIG. 69).

On to B1, for which the binding result with C-10 peptide [1], with N-10 peptide [2], with N+9/C-9 peptide and in the experiment with PSMGFR peptide [3] was “binds” in each case.

For the molecule B2, the binding result in the experiment with C-10 peptide [1], with N-10 peptide [2], with N+9/C-9 peptide and in the experiment with PSMGFR peptide [3] was “binds” throughout.

In the case of B3, the binding result with PSMGFR peptide [4] is “binds”; in the experiment with N-10 peptide [5], “binds”; with C-10 peptide [6], “no binding”.

As for B4, the values for the binding result with PSMGFR peptide [4], with N-10 peptide [5] and in the experiment with C-10 peptide [6] were “binds”, “binds” and “no binding”, respectively.

For B5, the binding result with PSMGFR peptide [4] was “binds”; with N-10 peptide [5], “binds”; with C-10 peptide [6], “no binding”.

On to B6, for which the binding result is “no binding” in the experiment with C-10 peptide [1], “binds” in the experiment with PSMGFR peptide [7] and “binds” in the experiment with N-10 peptide [8].

Usually EC50 stands for the concentration that produces a half-maximal response. Molecule B7 showed an EC50 in the experiment with PSMGFR peptide [9] of roughly 333 nM.

With B8, the binding result in the experiment with C-10 peptide [10] is “no binding”; in the experiment with N+9/C-9 peptide it was “no binding”; with PSMGFR peptide [7] it was “binds”; with N-10 peptide [8], “binds”.

B9: the binding result with NME7AB is given as “binds”.

With B10, the binding result with PSMGFR peptide [4] is “binds”; with N-10 peptide [5], “binds”; with C-10 peptide [6], “no binding”.

On to B11, for which the binding result is reported as “binds” with PSMGFR peptide [4], “binds” with N-10 peptide [5] and “no binding” in the experiment with C-10 peptide [6].

Turning to B12, the binding result with N-10 peptide [11], with N-19 peptide, in the experiment with N-26 peptide, with N-30 peptide, with N-10/C-5 peptide and with N-19/C-5 peptide was “no binding” throughout.

(Values after US20240390418A1 (MINERVA BIOTECHNOLOGIES, published 2024).)
